The target in the test is CHMS dehydrogenase PmdC from Comamonas testosteroni (Comamonas testosteroni). Nature of the test: SEC; purified PmdC (wild type and mutants) in solution; conditions of the run not told in the text shown (Figs. S5, S12). In general terms: Size exclusion chromatography separates by hydrodynamic size, large species first.

These results are taken from publication PMC11489326, “Characterization of lignin-degrading enzyme PmdC, which catalyzes a key step in the synthesis of polymer precursor 2-pyrone-4,6-dicarboxylic acid” (The Journal of Biological Chemistry, 2024).

The term stoichiometry N denotes a count of units in the complex or per binding partner. Turning to “CHMS dehydrogenase PmdC from Comamonas testosteroni (enzyme)”, the stoichiometry N turned out to be 2.
